Results on two substances are retold here after doi:10.1101/2025.05.22.653117.

In assay [1] the target is MbTEC^PH (R28E) (Monosiga brevicollis). The assay can be described thus: FP. Conditions: domain or fragment.
Assay [2] shares this target. As to the kind of experiment: fluorescence polarisation. A general note: Polarisation of emitted light reports the rotation of a fluorescent probe.
Assay [3] has as its target MbTEC^PH (isolated PH domain of Monosiga brevicollis TEC), wild type, labeled with Atto488 (Monosiga brevicollis). As to the kind of experiment: fluorescence polarisation.

As to “MbTEC^32K (SH3-SH2-kinase module of Monosiga brevicollis TEC), wild type”, the Kd (commonly the constant that tells how readily two partners part at equilibrium) in assay [1] came to 22.4 µM.
With “MbTEC^32K (SH3-SH2-kinase module of Monosiga brevicollis TEC), wild type (domain or fragment)”, the fold weakening against wild-type MbTEC^PH in assay [2] turned out to be 5 fold. Moreover, in assay [3], the Kd is 4 µM.
